In US20110059078A1 (AstraZeneca / MedImmune, published 2011):

T1: human interferon alpha receptor 1 (IFNAR1), on cells (human, UniProt P17181 28-557)
T1 construct: whole, on cells; For PBMCs, monocytes and THP-1 cells it names only the cells
T1 sequence (looked up): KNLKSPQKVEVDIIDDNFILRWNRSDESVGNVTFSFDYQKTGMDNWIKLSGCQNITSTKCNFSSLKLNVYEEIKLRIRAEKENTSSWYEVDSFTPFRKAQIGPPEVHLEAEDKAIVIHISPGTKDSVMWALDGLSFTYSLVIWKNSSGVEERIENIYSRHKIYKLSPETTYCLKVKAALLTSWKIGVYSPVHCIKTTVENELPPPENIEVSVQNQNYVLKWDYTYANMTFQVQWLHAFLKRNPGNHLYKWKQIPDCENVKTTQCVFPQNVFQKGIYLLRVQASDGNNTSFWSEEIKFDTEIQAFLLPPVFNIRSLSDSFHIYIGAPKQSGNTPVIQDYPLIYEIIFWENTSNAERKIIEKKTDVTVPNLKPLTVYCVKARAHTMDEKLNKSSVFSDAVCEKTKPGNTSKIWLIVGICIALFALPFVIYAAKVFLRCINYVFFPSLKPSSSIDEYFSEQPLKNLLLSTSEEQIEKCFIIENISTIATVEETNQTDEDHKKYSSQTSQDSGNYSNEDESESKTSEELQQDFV

T2: ovalbumin (UniProt P01012 2-386)
T2 construct: Control protein; also called soluble ovalbumin
T2 sequence (looked up): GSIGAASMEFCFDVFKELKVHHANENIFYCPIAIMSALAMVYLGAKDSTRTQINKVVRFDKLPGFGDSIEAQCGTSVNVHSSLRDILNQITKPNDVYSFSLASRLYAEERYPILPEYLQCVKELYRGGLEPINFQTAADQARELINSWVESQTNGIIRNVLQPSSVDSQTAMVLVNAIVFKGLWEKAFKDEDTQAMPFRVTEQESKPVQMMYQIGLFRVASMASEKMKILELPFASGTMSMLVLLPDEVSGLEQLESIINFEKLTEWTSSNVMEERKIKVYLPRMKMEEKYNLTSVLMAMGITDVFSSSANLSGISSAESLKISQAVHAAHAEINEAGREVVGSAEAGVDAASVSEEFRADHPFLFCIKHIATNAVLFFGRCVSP


Assays:
[1] = target: human interferon alpha receptor 1 (IFNAR1), on cells (human) (UniProt P17181); test: cell-based or functional assay
[2] = target: T1, human interferon alpha receptor 1 …; test: IHC of human monocytes with biotinylated antibody
Experimental: Human Monocytes: A cell suspension was smeared/spotted directly onto slides. The slides were allowed to dry overnight and then soaked in Acetone for 10 min and allowed to air dry. Prior to use, slides were dipped into 10% neutral buffered formalin for 10 secs and washed 3× in buffer (1×TBS with 0.01% Tween20).
Slide staining: After washing in buffer, slides were treated to quench endogenous peroxidases by treatment with a solution of Glucose Oxidase (1 U/ml, Sigma G0543), B-D(+) Glucose (10 mM, Sigma G5250), Sodium Azide (1 mM, Sigma, S8032) for 1 hour at room temperature. Slides were then rinsed in wash buffer (1×TBS with 0.01% Tween 20). Slides were placed in a protein block solution (1×PBS pH7.2, 0.5% casein(N-Z amine, Sigma CO626), 1% BSA (Sigma A7906), 1.5% Normal Goat serum (Jackson Labs #005-000-001) for 30 min at room temperature. Biotinylated antibody (see above) was applied to the slides by dilution into the protein block solution. Incubation of the slides with the biotinylated antibody was performed at room temperature for 2 hours. Slides were rinsed 3× in wash buffer (1×TBS, 0.01% Tween 20). Antibody detection was performed using a Vectastain Kit (Vector Laboratories). Slides were washed and counterstained with hematoxylin. Slides were dehydrated and mounted with coverslips prior to viewing.

[3] = target: T1, human interferon alpha receptor 1 …; test: europium-labelled antibody binding to HEK 293F cells, Kd from binding curves (GraphPad Prism)
Experimental: Methods: 200,000 HEK 293F cells were seeded in a round bottom, 96-well plate using 50 μL RPMI 1640 media supplemented with 10% FBS. […] 25 μL of europium conjugated, serially diluted antibody was then added to appropriate wells and cells and antibodies were agitated gently at room temperature for 1-2 hours. After binding incubation, 150 μL of cell media was added to all wells and plates were spun at 1200 rpm for 5 minutes at room temperature. Plates were quickly decanted and 250 μL cell media was added to all wells. Spins and washes were repeated for a total of 3 washes. Cells were then resuspended in 100 μL cell media. 50 μL of resuspended cells were transferred to 200 μL of DELPHIA enhancement solution (PerkinElmer) in a DELPHIA yellow microtiter plate and Europium emission was measured on a Victor2 Multilabel reader (PerkinElmer). Signal was measured in cps and Kd values and Bₘₐₓ values were generated using GraphPad Prism 4 analysis software.

[4] = target: T1, human interferon alpha receptor 1 …; test: cell-based or functional assay
ovalbumin [5] = target: T2, ovalbumin; test: BIAcore, ovalbumin control, antibody at 333 nM, reference-subtracted
Experimental: All experiments were performed on a BIAcore 3000 instrument (BIAcore, Inc., Uppsala, Sweden). […] Separately, a blank surface was also prepared on each chip using the identical protocol, minus the protein. This blank surface was used as a reference cell throughout the experiment, and served to correct for both non-specific binding and certain housekeeping artifacts.

[6] = target: T3, FcγRIIIA variant 158F (low affinity) with Flag tag (UniProt P08637 17-208, limits assumed); test: ELISA, antibody coated on the plate at 50 µg/ml, Flag-tagged FcγRIIIA titrated, biotin anti-Flag and avidin-HRP
T3 construct: not shown: Flag tag
Experimental: (§1) The plate was washed one hour later and incubated with biotin conjugated anti Flag antibody (Sigma) at 2 μg/ml. After washing 25 μl of HRP conjugated Avidin was added to each well. The unbound materials were removed by washing one hour after incubation. The binding signal was detected with the substrate TMB.

[7] = target: T4, FcγRIIIA variant 158V (high affinity) with Flag tag (UniProt P08637 17-208); test: as above
T4 construct: also called FcγRIIIA-10 158V; not shown: Flag tag
Experimental: as §1

[8] = target: T1, human interferon alpha receptor 1 …; test: cell-based or functional assay; remark: listed apart in the source
ovalbumin [9] = target: T2, ovalbumin; test: BIAcore, control surface, FcγRI injected at 20 nM, reference-subtracted
Experimental: Methods: All experiments were performed on a BIAcore 3000 instrument (BIAcore, Inc., Uppsala, Sweden). In a typical experiment 1 μM solutions of 9D4 IgGs were used to immobilize anywhere from ˜7000 RUs−˜11,000 RUs of protein onto CM5 sensor chip surfaces using a standard amino coupling protocol (BIAcore, Inc.). Separately, a blank surface was also prepared on each chip using the identical protocol, minus the protein. This blank surface was used as a reference cell throughout the experiment, and served to correct for both non-specific binding and certain housekeeping artifacts.

T4 sequence (P08637 other isoform, or with tags, fused parts or gaps mutant): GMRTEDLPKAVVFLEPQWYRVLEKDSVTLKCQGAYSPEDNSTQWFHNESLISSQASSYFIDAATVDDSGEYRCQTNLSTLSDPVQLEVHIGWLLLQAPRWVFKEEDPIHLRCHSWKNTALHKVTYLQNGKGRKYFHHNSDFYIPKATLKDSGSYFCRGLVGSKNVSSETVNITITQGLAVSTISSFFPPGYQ
T3 sequence (P08637 17-208 limits assumed, change not shown): as the sequence (P08637 other isoform, or with tags, fused parts or gaps mutant) above, with V160F counted along it

| Molecule | Kd [3] [nM] | IC50, HiL3 ISRE-luciferase reporter assay, neutralization of Human Leukocyte IFN [4] [µg/mL] | IC50, HiL3 ISRE-luciferase reporter assay, neutralization of IFNα 2b [4] [µg/mL] | IC50, HiL3 ISRE-luciferase reporter assay, neutralization of IFNα10 [4] [µg/mL] | IC50, HiL3 ISRE-luciferase reporter assay, neutralization of IFNβ [4] [µg/mL] | IC50, HiL3 ISRE-luciferase reporter assay, neutralization of IFNω [4] [µg/mL] | IC50, luciferase reporter assay, Leukocyte IFN signaling [4] [nM] | IC50, suppression of CD38 expression on cells stimulated with leukocyte-IFN [4] [µg/mL] | IC50, suppression of CD86 expression on cells stimulated with leukocyte-IFN [4] [µg/mL] | IC50, suppression of CD123 expression on cells stimulated with leukocyte-IFN [4] [µg/mL] | binding result (ovalbumin [5]) | other results |
| --- | --- | --- | --- | --- | --- | --- | --- | --- | --- | --- | --- | --- |
| anti-IFNAR1 antibody MDX-1333 |  |  |  |  |  |  |  |  |  |  |  | IC50, HiL3 ISRE-luciferase reporter assay, neutralization of Human Leukocyte IFN [1]: 1.12 µg/mL; IC50, HiL3 ISRE-luciferase reporter assay, neutralization of IFNα 2b [1]: 0.000646 µg/mL; IC50, HiL3 ISRE-luciferase reporter assay, neutralization of IFNα10 [1]: 0.0988 µg/mL; IC50, HiL3 ISRE-luciferase reporter assay, neutralization of IFNβ [1]: 19 µg/mL; IC50, HiL3 ISRE-luciferase reporter assay, neutralization of IFNω [1]: 5.32 µg/mL; IC50, luciferase reporter assay, Leukocyte IFN signaling [1]: 0.04 nM |
| anti-IFNAR1 antibody 4G5 (antibody, V domains shown, Biotinylated for IHC) VH: QVQLQQWGAGLLKPSETLSLTCAVYGGSFSNYYWSWIRQPPGKGLEWIGEIILSGSTNYNPSLKSRVTISVDTSKNQFSLNLTSVTAADTAVYYCARESKWGYYFDSWGQGTLVTVSS VL: AIQLTQSPSSLSASVGDRVTITCRATQDISIALVWYQQKPGKAPELLIYDASGLGSGVPSRFSGSGSGTDFTLTISSLQPEDFATYYCQQFNSYPYTFGQGTKLEIK |  |  |  |  |  |  |  |  |  |  |  | binding result [2]: binds |
| anti-IFNAR1 antibody 9D4 (parental, unmodified) (antibody, V domains shown, Whole IgG with unmodified Fc; the TM variant was engineered on human IgG1 and IgG1 isotype controls were used; Biotinylated in some ELISAs; also called 9D4-WT; 9D4WT) VH: EVQLVQSGAEVKKPGESLKISCKGSGYIFTNYWIAWVRQMPGKGLESMGIIYPGDSDIRYSPSFQGQVTISADKSITTAYLQWSSLKASDTAMYYCARHDIEGFDYWGRGTLVTVSS VL: EIVLTQSPGTLSLSPGERATLSCRASQSVSSSFFAWYQQKPGQAPRLLIYGASSRATGIPDRLSGSGSGTDFTLTITRLEPEDFAVYYCQQYDSSAITFGQGTRLEIK | 0.06 | 0.021 | 0.00279 | 0.00834 | 0.74 | 0.0101 | 0.01 | 0.0043 | 0.02 | 0.007 | no binding |  |
| modified anti-IFNAR1 antibody 9D4-DM (Double Mutant) (antibody, human IgG4, V domains shown, Biotinylated in some ELISAs) VH: EVQLVQSGAEVKKPGESLKISCKGSGYIFTNYWIAWVRQMPGKGLESMGIIYPGDSDIRYSPSFQGQVTISADKSITTAYLQWSSLKASDTAMYYCARHDIEGFDYWGRGTLVTVSS VL: EIVLTQSPGTLSLSPGERATLSCRASQSVSSSFFAWYQQKPGQAPRLLIYGASSRATGIPDRLSGSGSGTDFTLTITRLEPEDFAVYYCQQYDSSAITFGQGTRLEIK | 0.06 |  |  |  |  |  | 0.01 | 0.04 | 0.02 | 0.021 |  |  |
| modified anti-IFNAR1 antibody 9D4-TM (Triple Mutant) (antibody, Labelled with europium, Alexa647 or biotin in some assays; also called 9D-TM; Alexa647-9D4-TM; copies: 2 + 2) VH: EVQLVQSGAEVKKPGESLKISCKGSGYIFTNYWIAWVRQMPGKGLESMGIIYPGDSDIRYSPSFQGQVTISADKSITTAYLQWSSLKASDTAMYYCARHDIEGFDYWGRGTLVTVSSASTKGPSVFPLAPSSKSTSGGTAALGCLVKDYFPEPVTVSWNSGALTSGVHTFPAVLQSSGLYSLSSVVTVPSSSLGTQTYICNVNHKPSNTKVDKRVEPKSCDKTHTCPPCPAPEFEGGPSVFLFPPKPKDTLMISRTPEVTCVVVDVSHEDPEVKFNWYVDGVEVHNAKTKPREEQYNSTYRVVSVLTVLHQDWLNGKEYKCKVSNKALPASIEKTISKAKGQPREPQVYTLPPSREEMTKNQVSLTCLVKGFYPSDIAVEWESNGQPENNYKTTPPVLDSDGSFFLYSKLTVDKSRWQQGNVFSCSVMHEALHNHYTQKSLSLSPGK VL: EIVLTQSPGTLSLSPGERATLSCRASQSVSSSFFAWYQQKPGQAPRLLIYGASSRATGIPDRLSGSGSGTDFTLTITRLEPEDFAVYYCQQYDSSAITFGQGTRLEIKRTVAAPSVFIFPPSDEQLKSGTASVVCLLNNFYPREAKVQWKVDNALQSGNSQESVTEQDSKDSTYSLSSTLTLSKADYEKHKVYACEVTHQGLSSPVTKSFNRGEC | 0.03 | 0.0212 | 0.000828 | 0.00429 | 0.261 | 0.0142 | 0.02 | 0.025 | 0.026 | 0.01 | no binding | binding result [6]: no binding (tested: 4.7 Log ng/ml (50 µg/ml by paragraph 350)); binding result [7]: no binding (tested: 4.7 Log ng/ml (50 µg/ml by paragraph 350)); IC50, luciferase reporter assay, inhibition of IFN-α1 activity [8]: 0.004 nM; IC50, luciferase reporter assay, inhibition of IFN-α2b activity [8]: 0.07 nM; IC50, luciferase reporter assay, inhibition of IFN-α4b activity [8]: 0.02 nM; IC50, luciferase reporter assay, inhibition of IFN-α6 activity [8]: 0.04 nM; IC50, luciferase reporter assay, inhibition of IFN-α7 activity [8]: 0.04 nM; IC50, luciferase reporter assay, inhibition of IFN-α8 activity [8]: 0.03 nM; IC50, luciferase reporter assay, inhibition of IFN-α10 activity [8]: 0.01 nM; IC50, luciferase reporter assay, inhibition of IFN-α14 activity [8]: 0.02 nM; IC50, luciferase reporter assay, inhibition of IFN-α16 activity [8]: 0.02 nM; IC50, luciferase reporter assay, inhibition of IFN-α17 activity [8]: 0.04 nM; IC50, luciferase reporter assay, inhibition of IFN-α21 activity [8]: 0.01 nM; IC50, luciferase reporter assay, inhibition of IFN-β1 activity [8]: 6.8 nM; IC50, luciferase reporter assay, inhibition of IFN-ω activity [8]: 0.1 nM; IC50, luciferase reporter assay, inhibition of Leukocyte Interferon activity [8]: 0.01 nM; IC50, PIL-5 ISRE luciferase reporter assay, neutralization of Type I interferons in SLE patient plasma [4]: 0.04 nM; IC50, inhibition of SLE plasma induced CD38 and CD123 expression on human monocytes (flow cytometry) [4]: 0.02 to 0.06 nM |
| human FcγRI (CD64) (receptor, UniProt P12314 16-288, looked up) QVDTTKAVITLQPPWVSVFQEETVTLHCEVLHLPGSSSTQWFLNGTATQTSTPSYRITSASVNDSGEYRCQRGLSGRSDPIQLEIHRGWLLLQVSSRVFTEGEPLALRCHAWKDKLVYNVLYYRNGKAFKFFHWNSNLTILKTNISHNGTYHCSGMGKHRYTSAGISVTVKELFPAPVLNASVTSPLLEGNLVTLSCETKLLLQRPGLQLYFSFYMGSKTLRGRNTSSEYQILTARREDSGLYWCEAATEDGNVLKRSPELELQVLGLQLPTP |  |  |  |  |  |  |  |  |  |  |  | binding result (ovalbumin [9]): no binding |
